From EP2670776B1 (F. Hoffmann-La Roche AG, dated 2018)
Numbering of substitutions follows the chain as printed. Numbers in names are those of the source.

B1: hole Fc, wild-type hole (single Fc chain, hinge cysteines mutated to serine) (other)
chain: DKTHTSPPSPAPELLGGPSVFLFPPKPKDTLMISRTPEVTCVVVDVSHEDPEVKFNWYVDGVEVHNAKTKPREEQYNSTYRVVSVLTVLHQDWLNGKEYKCKVSNKALPAPIEKTISKAKGQPREPQVYTLPPSREEMTKNQVSLSCAVKGFYPSDIAVEWESNGQPENNYKTTPPVLDSDGSFFLVSKLTVDKSRWQQGNVFSCSVMHEALHNHYTQKSLSLSPGK
notes: IgG1 Fc with T366S, L368A, Y407V only, made in E. coli in the same manner as the knob/knob Fc; also called hole wild-type; hole/hole homodimer
B2: Knob F241S/F243R (knob Fc with F241S/F243R mutations) (other, name in EU numbering)
chain: B1 chain with F21S, F23R, S146W, A148L, V187Y
notes: Positions are EU numbers, not positions on the entry; also called F241S/F243R mutant knob

Experiments:
[1] = target: B2; experiment: SPR (BioRad ProteOn), ligand hole wild-type immobilized on NHS activated sensor, analyte knob F241S/F243R 6.25-200 nM
hole F241S/F243R = target: T1, hole F241S/F243R (human, UniProt P0DOX5 223-449 = IgG part, F241S; F243R); experiment: SPR (BioRad ProteOn), ligand hole F241S/F243R immobilized on NHS activated sensor, analyte knob F241S/F243R 6.25-200 nM
T1 construct: SPR ligand named only 'hole F241S/F243R'; Positions are EU numbers

| Kd [1] | Kd (hole F241S/F243R) | Binder |
| --- | --- | --- |
| < 10 nM | – | B1 |
| – | < 10 nM | B2 |
